Test results: patent US10280218B2, “Antibodies binding to BMP4, and uses thereof” (ACADEMISCH MEDISCH CENTRUM, priority 2014, dated 2019)

Assays:
HT29 cells = assay: Chemosensitivity / cell viability (Presto Blue); type: cell-based, human
Protocol: We wanted to determine whether this effect could be attributable to BMP4 that is being secreted by the cancer cells, and if therefore, could be inhibited by our BMP4-specific VHHs. A panel of colorectal cancer cells was tested for the presence of active BMPs in their conditioned media (FIG. 28A). To that end, the C2C12 cells were cultured with supernatants from different cancer cell lines. When normalized for the BMPs present in normal fetal calf serum, we found a high variability in BRE-luciferase activity across cell lines. […] One of those cell lines, HT29, was used to test the effect of BMP4 inhibition in terms of proliferation. No effect was observed when cultured with the VHHs or Noggin alone (data not shown).
HT29 cells were plated in 96-well plates at a density of 10,000 cells per well. […] The VHHs or Noggin were added at the same time at a concentration of 500 ng/ml. Cell viability was measured by adding the Presto Blue Reagent (Invitrogen) for 2 hours at 37° C., after which absorbance was measured at […].

BMP5 = target: T1, BMP5 (Homo sapiens, UniProt P22003); assay: BMP activity luciferase reporter assay (BRE-luciferase, ID1 promoter) in C2C12 cells; type: cell-based, mouse; parameters: purchased R&D Systems 615-BMC-020; settings: 200 ng/ml hBMP5, 16 h; VHH, Noggin, Gremlin 500 ng/ml; LDN 0.5 μM; DMH1 0.2 μM
T1 sequence (P22003 317-454): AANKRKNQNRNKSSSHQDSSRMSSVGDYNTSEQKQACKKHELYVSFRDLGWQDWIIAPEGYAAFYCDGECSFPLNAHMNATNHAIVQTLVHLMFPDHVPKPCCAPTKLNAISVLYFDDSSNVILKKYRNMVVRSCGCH
Protocol: (§1) One of the most studied BMP target genes is the Inhibitor of Differentiation 1 (ID1). This is an immediate early gene that is activated by binding of the phosphorylated SMADs to its promoter region (López-Rovira et al., 2002). Thus, we employed the BMP-responsive C2C12 cells, which are stably transfected with the BRE-luciferase vector containing the BMP-Responsive-Element (the mouse ID1 promoter) cloned into the pGL3 luciferase vector (Zilberberg 2007). […] C2C12 cells were treated with the different BMPs with or without our VHHs or human Noggin at a concentration of 5 μg/ml. Luciferase activity was measured after 16 hours incubation. Most of the transcriptional data is in concordance with the results obtained with the phosphorylation of SMAD1/5/8.
C2C12 cells were plated in 96-well plates at 5×10^3 cells/well and cells were allowed to attach overnight. 100 μl of DMEM with 0.1% BSA were added in each well. VHH antibodies and human Fc-Noggin at the indicated concentrations were added at the same time. Wells with unstimulated cells were added as controls. […] Luciferase activity was measured by adding 100 μl of luciferase substrate solution from the Bright-Glo™ Luciferase Assay System (Promega Benelux, Leiden, The Netherlands). After 3 minutes of incubation, luciferase activity was measured with Synergy HT Multi-Mode Microplate Reader (Biotek, Winooski, Vt., United States). […]

BMP7 = target: T2, BMP7 (Homo sapiens, UniProt P18075); assay: as above; type: cell-based, mouse; settings: 200 ng/ml hBMP7, 16 h; 500 ng/ml
T2 sequence (P18075 293-431): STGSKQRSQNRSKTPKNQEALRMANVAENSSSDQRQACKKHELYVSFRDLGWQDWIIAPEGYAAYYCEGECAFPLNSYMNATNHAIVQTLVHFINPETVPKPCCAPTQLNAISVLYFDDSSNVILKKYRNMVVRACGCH
Protocol: as §1
C2C12 cells were plated in 96-well plates at 5×10^3 cells/well and cells were allowed to attach overnight. 100 μl of DMEM with 0.1% BSA were added in each well. VHH antibodies and human Fc-Noggin at the indicated concentrations were added at the same time. Wells with unstimulated cells were added as controls. Cells were treated in triplicate with the BMPs at the indicated concentrations for 16 hours. Luciferase activity was measured by adding 100 μl of luciferase substrate solution from the Bright-Glo™ Luciferase Assay System (Promega Benelux, Leiden, The Netherlands). After 3 minutes of incubation, luciferase activity was measured with Synergy HT Multi-Mode Microplate Reader (Biotek, Winooski, Vt., United States). Luciferase values were normalized to background activity (activity of wells with no cells) and represented as ratio to the activity of BMP-stimulated cells.
C2C12 cells were cultured in 96-well plates at 5×10^3 cells/well. […]

inhibition of BMP5 signals, comparison of inhibitors (BMP5): greatly inhibit
inhibition of BMP-7 signals, comparison of inhibitors (BMP7): inhibited
B1: hNoggin (protein)
chain: QHYLHIRPAPSDNLPLVDLIEHPDPIFDPKEKDLNETLLRSLLGGHYDPGFMATSPPEDRPGGGGGAAGGAEDLAELDQLLRQRPSGAMPSEIKGLEFSEGLAQGKKQRLSKKLRRKLQMWLWSQTFCPVLYAWNDLGSRFWPRYVKVGSCFSKRSCSVPEGMVCKPSKSVHLTVLRWRCQRRGGQRCGWIPIQYPIISECKCSC
chemosensitivity (cell viability) in combination with Carboplatin, 5′FU or Oxaliplatin (HT29 cells; 500 ng/ml, 48 hours): not as effective as observed for C4C4 or C8C8
effect on HT29 proliferation, alone (HT29 cells; without chemotherapy (data not shown)): No effect
